B1: WW domain-binding protein 2 (Homo sapiens), Q969T9 (parent)
chain: MALNKNHSEGGGVIVNNTESILMSYDHVELTFNDMKNVPEAFKGTKKGTVYLTPYRVIFLSKGKDAMQSFMMPFYLMKDCEIKQPVFGANYIKGTVKAEAGGGWEGSASYKLTFTAGGAIEFGQRMLQVASQASRGEVPSGAYGYSYMPSGAYVYPPPVANGMYPCPPGYPYPPPPPEFYPGPPMMDGAMGYVQPPPPPYPGPMEPPVSGPDVPSTPAAEAKAAEAAASAYYNPGNPHNVYMPTSQPPPPPYYPPEDKKTQ

Variants of: B1
Conditions: with wwtr1_human WWTR1, Q9GZV5
wwtr1_human WWTR1, Q9GZV5, sequence (Q9GZV5 whole entry): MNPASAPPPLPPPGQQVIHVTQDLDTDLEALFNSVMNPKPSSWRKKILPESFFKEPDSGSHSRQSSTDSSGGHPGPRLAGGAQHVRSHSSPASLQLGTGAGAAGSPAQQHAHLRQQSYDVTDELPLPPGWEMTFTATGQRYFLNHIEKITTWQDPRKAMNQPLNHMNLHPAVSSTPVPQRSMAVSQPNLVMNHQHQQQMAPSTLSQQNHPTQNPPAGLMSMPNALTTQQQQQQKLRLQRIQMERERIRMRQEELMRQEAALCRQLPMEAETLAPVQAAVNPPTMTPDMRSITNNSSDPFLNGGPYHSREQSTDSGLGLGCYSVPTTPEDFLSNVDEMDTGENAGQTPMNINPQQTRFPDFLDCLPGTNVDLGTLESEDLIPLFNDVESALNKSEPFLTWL

effect of a mutation on the interaction	Variant
disrupting interaction	Y200A

Source: IntAct's records for PubMed 20972459
